Data from patent US10927178B2, “Anti-CXCR4 antibodies and antibody-drug conjugates” (PFIZER INC., priority 2013, dated 2021).
Changes are numbered by the printed parent chain. Names and notes keep the numbering of the source.

B1: h3G10.1.91 VH/h3G10.2.72 VL: Fab; VH SEQ ID NO:33, VL SEQ ID NO:49 (antibody, V domains shown)
VH: EVQLVESGGGLVQPGGSLRLSCAASGFTFSDYYMSWVRQAPGKGLEWVGFIRHKANFETTEYSTSVKGRFTISRDDSKNSLYLQMNSLKTEDTAVYYCARDLPGFAYWGQGTLVTVSS
VL: DIVMTQSPDSLAVSLGERATINCKSSQSLFNSRTRKNYLAWYQQKPGQPPKLLIYWASARESGVPDRFSGSGSGTDFTLTISSLQAEDVAVYYCKQSFRLRTFGGGTKVEIK
modifications: Fab
B2: h3G10.2.37 VH/h3G10.2.72 VL: Fab; VH SEQ ID NO:35, VL SEQ ID NO:49 (antibody, V domains shown)
VH: B1 VH with E58Y, T60R
VL: B1 VL
modifications: Fab
B3: h3G10.A57 VH/h3G10.A58A VL: Fab; VH SEQ ID NO:23, VL SEQ ID NO:57 (antibody, V domains shown)
VH: B1 VH with E58Y
VL: B1 VL with R33H, E61G
modifications: Fab
B4: h3G10.1.91 VH/h3G10.A58A VL: Fab; VH SEQ ID NO:33, VL SEQ ID NO:57 (antibody, V domains shown)
VH: B1 VH
VL: B1 VL with R33H, E61G
modifications: Fab
B5: h3G10.2.37 VH/h3G10.A58A VL: Fab; VH SEQ ID NO:35, VL SEQ ID NO:57 (antibody, V domains shown)
VH: B1 VH with E58Y, T60R
VL: B1 VL with R33H, E61G
modifications: Fab
B6: h3G10.A57 VH/h3G10.A58B VL: Fab; VH SEQ ID NO:23, VL SEQ ID NO:73 (antibody, V domains shown)
VH: B1 VH with E58Y
VL: B1 VL with R33H, E61G, R99N
modifications: Fab
B7: h3G10.1.91 VH/h3G10.A58B VL: Fab; VH SEQ ID NO:33, VL SEQ ID NO:73 (antibody, V domains shown)
VH: B1 VH
VL: B1 VL with R33H, E61G, R99N
modifications: Fab
B8: h3G10.2.37 VH/h3G10.A58B VL: Fab; VH SEQ ID NO:35, VL SEQ ID NO:73 (antibody, V domains shown)
VH: B1 VH with E58Y, T60R
VL: B1 VL with R33H, E61G, R99N
modifications: Fab
B9: h3G10 VH/h3G10 VL: Fab; VH SEQ ID NO:21, VL SEQ ID NO:47 (antibody, V domains shown)
VH: B1 VH with F57G, E58Y
VL: B1 VL with R99N
modifications: Fab
B10: h3G10.A57 VH/h3G10 VL: Fab; VH SEQ ID NO:23, VL SEQ ID NO:47 (antibody, V domains shown)
VH: B1 VH with E58Y
VL: B1 VL with R99N
modifications: Fab

Target: T1, human CXCR4-enriched lipoparticles (Homo sapiens, UniProt P61073)
T1 construct: purchased Integral Molecular, Philadelphia Pa; LEV101
T1 sequence (P61073 whole entry): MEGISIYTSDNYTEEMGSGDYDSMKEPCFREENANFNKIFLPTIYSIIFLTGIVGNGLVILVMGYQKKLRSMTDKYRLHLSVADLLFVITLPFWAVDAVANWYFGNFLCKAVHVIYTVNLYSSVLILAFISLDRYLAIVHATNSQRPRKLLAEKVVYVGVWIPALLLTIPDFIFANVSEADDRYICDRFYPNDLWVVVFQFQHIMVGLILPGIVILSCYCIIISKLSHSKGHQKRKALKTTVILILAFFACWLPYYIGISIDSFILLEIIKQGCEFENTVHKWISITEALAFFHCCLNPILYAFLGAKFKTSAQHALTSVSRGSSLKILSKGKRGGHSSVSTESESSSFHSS
Experiment: Biosensor affinity measurement of Fabs on CXCR4-enriched lipoparticles
Assay type: binding
Conditions: Fab; kinetic titration
Procedure: One way of determining binding affinity of antibodies to CXCR4 is by measuring binding affinity of monofunctional Fab fragments of the antibody. To obtain monofunctional Fab fragments, an antibody (for example, IgG) can be cleaved with papain or expressed recombinantly. […] Biotinylated WGA can be coated on the SA chip to facilitate capturing Lipoparticles containing CXCR4 proteins. […] J. Mol. Recognit. 12, 279-284 (1999).
The concentrations of the Fab proteins are determined by ELISA and/or SDS-PAGE electrophoresis using a Fab of known concentration (as determined by amino acid analysis) as a standard. Kinetic association rates (kon) and dissociation rates (koff) are obtained simultaneously by fitting the data globally to a 1:1 Langmuir binding model (Karlsson, R. Roos, H. Fagerstam, L. Petersson, B. (1994). Methods Enzymology 6. 99-110) using the BIAevaluation program. Equilibrium dissociation constant (KD) values are calculated as koff/kon.
The binding affinity of each Fab was determined using human CXCR4-enriched lipoparticles (LEV101, Integral Molecular, Philadelphia Pa.). Biotinylated WGA (Sigma Aldrich, St. Louis Mo.)) can be coated on the SA chip to facilitate capturing lipoparticles containing CXCR4 proteins. […] J. Mol. Recognit. 12, 279-284 (1999).

| Molecule | Ka (1/MS) | Kd |
| --- | --- | --- |
| B1 | 1.50E+06 1/MS | 0.00049 s⁻¹ |
| B2 | 2.30E+06 1/MS | 0.0008 s⁻¹ |
| B3 | 1.60E+06 1/MS | 0.00063 s⁻¹ |
| B4 | 9.08E+05 1/MS | 0.000341 s⁻¹ |
| B5 | 1.29E+06 1/MS | 0.000418 s⁻¹ |
| B6 | 6.88E+05 1/MS | 0.000515 s⁻¹ |
| B7 | 8.03E+05 1/MS | 0.000286 s⁻¹ |
| B8 | 7.97E+05 1/MS | 0.000449 s⁻¹ |
| B9 | 1.60E+06 1/MS | 0.003 s⁻¹ |
| B10 | 1.17E+06 1/MS | 0.00143 s⁻¹ |
